In one experiment the target is T1, human CD94 protein (human, UniProt Q13241 34-179, limits assumed).
T1 sequence (looked up): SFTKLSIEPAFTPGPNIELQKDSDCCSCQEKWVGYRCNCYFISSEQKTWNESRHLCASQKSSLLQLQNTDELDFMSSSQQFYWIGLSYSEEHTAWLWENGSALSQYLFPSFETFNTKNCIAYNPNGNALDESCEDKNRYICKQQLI
The experiment can be described thus: OCTET BLI, Fab on human CD94 protein.

Experiment [1] deals with T2, human CD94 expressed on cells (human primary NK cells in PBMCs; HEK cells expressing human CD94) (human, UniProt Q13241 1-179).
T2 construct: whole, on cells; also called KLRD1; Natural killer cells antigen CD94
T2 sequence (looked up): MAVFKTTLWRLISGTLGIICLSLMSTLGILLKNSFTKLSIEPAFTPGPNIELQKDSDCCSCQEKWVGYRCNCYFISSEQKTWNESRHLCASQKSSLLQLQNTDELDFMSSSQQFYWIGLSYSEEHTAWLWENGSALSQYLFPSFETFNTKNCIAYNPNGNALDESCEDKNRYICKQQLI
Description: flow cytometry, HEK cells expressing human CD94, 1st run. As to the method: (§1) Binding of the variant antibodies to HEK cells expressing human CD94 was also tested. Variants and ATX-130 antibodies were generated in human IgG1 form, and binding to HEK cells expressing human CD94 was assessed using flow cytometry. Experiments were run in duplicate, and the average EC50 of the 2 runs was calculated.
(Flow cytometry measures light scatter and fluorescence of single cells or particles in a stream.)

Experiment [2] has as its target T2, human CD94 expressed on cells (human …). Description: flow cytometry, HEK cells expressing human CD94, 2nd run. As to the method:
as §1

Experiment [3] shares this target. The experiment can be described thus: flow cytometry, HEK cells expressing human CD94, average of 2 runs. As to the method:
as §1

This note sets out measurements from US20250197505A1 (DREN BIO, published 2025).

A word on the koff: it is the first-order rate constant of dissociation. A word on the EC50: it is the concentration needed to bring the measured effect to its halfway point. Low values mean an effect from little substance, high ones a need for much substance.

B1: ATX-130 Fab (Fab, V domains shown)
VH: EVQLLESGGGLVKPGGSLRLSCAASGFTFSSYSMNWVRQAPGKGLEWVSSISTSSNFIYYADSVKGRFTISRDNAKNSLYLQMNSLRAEDTAVYYCARDLGRYYYYMDVWGKGTTVTVSS
VL: DIVMTQSPSSLSASVGDRVTITCRASQSISSWLAWYQQKPGKAPKSLIYAASSLQSGVPSKFSGSGSGTDFTLTISSLQPEDVATYYCQKYNSAPFTFGPGTKVDIK
notes: Fab version
Turning to B1, in the experiment with human CD94 protein, the koff is 0.0029 s⁻¹.

B2: ATX-130 hG1 (antibody, V domains shown)
VH: EVQLLESGGGLVKPGGSLRLSCAASGFTFSSYSMNWVRQAPGKGLEWVSSISTSSNFIYYADSVKGRFTISRDNAKNSLYLQMNSLRAEDTAVYYCARDLGRYYYYMDVWGKGTTVTVSS
VL: DIVMTQSPSSLSASVGDRVTITCRASQSISSWLAWYQQKPGKAPKSLIYAASSLQSGVPSKFSGSGSGTDFTLTISSLQPEDVATYYCQKYNSAPFTFGPGTKVDIK
notes: Human IgG1 form; also called ATX-130 human IgG1
Take B2: the EC50 in experiment [1] was found to be 0.11 nM; in experiment [2] it was 0.12 nM; in experiment [3] it was 0.12 nM.

B3: Ab.31 Fab (Fab, V domains shown)
VH: EVQLLESGGGLVKPGGSLRLSCAASGFTFSSYSMNWVRQAPGKGLEWVSSISTSSNFIYYADSVKGRFTISRDNAKNSLYLQMNSLRAEDTAVYYCARDLGRYYYYMDVWGKGTTVTVSS
VL: DIVMTQSPSSLSASVGDRVTITCRASQSISSWLAWYQQKPGKAPKSLIYAASSLQSGVPSRFSGSGSGTDFTLTISSLQPEDVATYYCQKYNSAPFTFGPGTKVDIK
notes: Fab version
B3 returned an off-rate (koff) with human CD94 protein of 0.00352 s⁻¹.

B4: Ab.28 Fab (Fab, V domains shown)
VH: EVQLLESGGGLVKPGGSLRLSCAASGFTFSSYSMNWVRQAPGKGLEWVSSISTSSNFIYYADSVKGRFTISRDNAKNSLYLQMNSLRAEDTAVYYCARDLGRYYYYMDVWGKGTTVTVSS
VL: DIVMTQSPSSLSASVGDRVTITCRASQSISSWLAWYQQKPEKAPKSLIYAASSLQSGVPSKFSGSGSGTDFTLTISSLQPEDVATYYCQKYNSAPFTFGPGTKVDIK
notes: Fab version
B4 displayed a dissociation rate constant (koff) in the experiment with human CD94 protein of 0.00425 s⁻¹.

B5: Ab.25 Fab (Fab, V domains shown)
VH: EVQLLESGGGLVKPGGSLRLSCAASGFTFSSYSMNWVRQAPGKGLEWVSSISTSSNYIYYADSVKGRFTISRDNAKNSLYLQMNSLRAEDTAVYYCARDLGRYYYYMDVWGKGTTVTVSS
VL: DIVMTQSPSSLSASVGDRVTITCRASQSISSWLAWYQQKPGKAPKSLIYAASSLQSGVPSKFSGSGSGTDFTLTISSLQPEDVATYYCQKYNSAPFTFGPGTKVDIK
notes: Fab version; VH cell printed as 'SEO ID NO: 32'
In the experiment with human CD94 protein, B5 had a koff of 0.00387 s⁻¹.

B6: Ab.27 Fab (Fab, V domains shown)
VH: EVQLLESGGGLVKPGGSLRLSCAASGFTFSSYSMNWVRQAPGKGLEWVSSISTSSNFIYYADSVKGRFTISRDNAKNSLYLQMNSLRAEDTAVYYCARDLGRYYYYMDVWGKGTTVTVSS
VL: DIVMTQSPSSLSASVGDRVTITCRASQSISSWLAWFQQKPGKAPKSLIYAASSLQSGVPSKFSGSGSGTDFTLTISSLQPEDVATYYCQKYNSAPFTFGPGTKVDIK
notes: Fab version
Regarding B6, the off-rate constant (koff) with human CD94 protein came to 0.00421 s⁻¹.

B7: Ab.22 Fab (Fab, V domains shown)
VH: EVQLVESGGGLVKPGGSLRLSCAASGFTFSSYSMNWVRQAPGKGLEWVSSISTSSNFIYYADSVKGRFTISRDNAKNSLYLQMNSLRAEDTAVYYCARDLGRYYYYMDVWGKGTTVTVSS
VL: DIVMTQSPSSLSASVGDRVTITCRASQSISSWLAWYQQKPGKAPKSLIYAASSLQSGVPSKFSGSGSGTDFTLTISSLQPEDVATYYCQKYNSAPFTFGPGTKVDIK
notes: Fab version
Take B7: the koff with human CD94 protein worked out at 0.00238 s⁻¹.

B8: Ab.32 Fab (Fab, V domains shown)
VH: EVQLLESGGGLVKPGGSLRLSCAASGFTFSSYSMNWVRQAPGKGLEWVSSISTSSNFIYYADSVKGRFTISRDNAKNSLYLQMNSLRAEDTAVYYCARDLGRYYYYMDVWGKGTTVTVSS
VL: DIVMTQSPSSLSASVGDRVTITCRASQSISSWLAWYQQKPGKAPKSLIYAASSLQSGVPSKFSGSGSGTDFTLTISSLQPEDFATYYCQKYNSAPFTFGPGTKVDIK
notes: Fab version
B8 returned a dissociation rate constant (koff) in the experiment with human CD94 protein of 0.0031 s⁻¹. This koff and that of the molecule before are within 1.5-fold of each other.

B9: Ab.24 hG1 (antibody, V domains shown)
VH: EVQLLESGGGLVKPGGSLRLSCAASGFTFSSYSMNWVRQAPGKGLEWVSSISTSSSFIYYADSVKGRFTISRDNAKNSLYLQMNSLRAEDTAVYYCARDLGRYYYYMDVWGKGTTVTVSS
VL: DIVMTQSPSSLSASVGDRVTITCRASQSISSWLAWYQQKPGKAPKSLIYAASSLQSGVPSKFSGSGSGTDFTLTISSLQPEDVATYYCQKYNSAPFTFGPGTKVDIK
notes: Human IgG1 form; also called Ab.24 human IgG1
On to B9, for which the EC50 in experiment [1] was determined as 0.14 nM; in experiment [2], 0.13 nM; in experiment [3], 0.14 nM.

B10: Ab.24 Fab (Fab, V domains shown)
VH: EVQLLESGGGLVKPGGSLRLSCAASGFTFSSYSMNWVRQAPGKGLEWVSSISTSSSFIYYADSVKGRFTISRDNAKNSLYLQMNSLRAEDTAVYYCARDLGRYYYYMDVWGKGTTVTVSS
VL: DIVMTQSPSSLSASVGDRVTITCRASQSISSWLAWYQQKPGKAPKSLIYAASSLQSGVPSKFSGSGSGTDFTLTISSLQPEDVATYYCQKYNSAPFTFGPGTKVDIK
notes: Fab version
B10 yielded a koff with human CD94 protein of 0.00695 s⁻¹.

B11: Ab.22 hG1 (antibody, V domains shown)
VH: EVQLVESGGGLVKPGGSLRLSCAASGFTFSSYSMNWVRQAPGKGLEWVSSISTSSNFIYYADSVKGRFTISRDNAKNSLYLQMNSLRAEDTAVYYCARDLGRYYYYMDVWGKGTTVTVSS
VL: DIVMTQSPSSLSASVGDRVTITCRASQSISSWLAWYQQKPGKAPKSLIYAASSLQSGVPSKFSGSGSGTDFTLTISSLQPEDVATYYCQKYNSAPFTFGPGTKVDIK
notes: Human IgG1 form; also called Ab.22 human IgG1
With B11, the EC50 in experiment [1], in experiment [2] and in experiment [3] was 0.12 nM each time.

B12: Ab.33 Fab (Fab, V domains shown)
VH: EVQLLESGGGLVKPGGSLRLSCAASGFTFSSYSMNWVRQAPGKGLEWVSSISTSSNFIYYADSVKGRFTISRDNAKNSLYLQMNSLRAEDTAVYYCARDLGRYYYYMDVWGKGTTVTVSS
VL: DIVMTQSPSSLSASVGDRVTITCRASQSISSWLAWYQQKPGKAPKSLIYAASSLQSGVPSKFSGSGSGTDFTLTISSLQPEDVATYYCQQYNSAPFTFGPGTKVDIK
notes: Fab version
B12 gave an off-rate (koff) with human CD94 protein of 0.00481 s⁻¹.

B13: Ab.34 Fab (Fab, V domains shown)
VH: EVQLLESGGGLVKPGGSLRLSCAASGFTFSSYSMNWVRQAPGKGLEWVSSISTSSNFIYYADSVKGRFTISRDNAKNSLYLQMNSLRAEDTAVYYCARDLGRYYYYMDVWGKGTTVTVSS
VL: DIVMTQSPSSLSASVGDRVTITCRASQSISSWLAWYQQKPGKAPKSLIYAASSLQSGVPSKFSGSGSGTDFTLTISSLQPEDVATYYCQKYNSYPFTFGPGTKVDIK
notes: Fab version
As for B13, in the experiment with human CD94 protein, the koff is 0.00576 s⁻¹.

B14: Ab.29 Fab (Fab, V domains shown)
VH: EVQLLESGGGLVKPGGSLRLSCAASGFTFSSYSMNWVRQAPGKGLEWVSSISTSSNFIYYADSVKGRFTISRDNAKNSLYLQMNSLRAEDTAVYYCARDLGRYYYYMDVWGKGTTVTVSS
VL: DIVMTQSPSSLSASVGDRVTITCRASQSISSWLAWYQQKPGKVPKSLIYAASSLQSGVPSKFSGSGSGTDFTLTISSLQPEDVATYYCQKYNSAPFTFGPGTKVDIK
notes: Fab version
B14 showed an off-rate (koff) with human CD94 protein of 0.00338 s⁻¹.

B15: Ab.26 Fab (Fab, V domains shown)
VH: EVQLLESGGGLVKPGGSLRLSCAASGFTFSSYSMNWVRQAPGKGLEWVSSISTSSNFIYYADSVKGRFTISRDNAKNSLYLQMNSLRAEDTAVYYCARDLGRYYYYMDVWGKGTTVTVSS
VL: DIQMTQSPSSLSASVGDRVTITCRASQSISSWLAWYQQKPGKAPKSLIYAASSLQSGVPSKFSGSGSGTDFTLTISSLQPEDVATYYCQKYNSAPFTFGPGTKVDIK
notes: Fab version
On to B15, for which the koff with human CD94 protein was 0.00446 s⁻¹.
